The assay deals with T1, DIP-β-G, recombinant protein for SPR (Drosophila melanogaster).
T1 chain: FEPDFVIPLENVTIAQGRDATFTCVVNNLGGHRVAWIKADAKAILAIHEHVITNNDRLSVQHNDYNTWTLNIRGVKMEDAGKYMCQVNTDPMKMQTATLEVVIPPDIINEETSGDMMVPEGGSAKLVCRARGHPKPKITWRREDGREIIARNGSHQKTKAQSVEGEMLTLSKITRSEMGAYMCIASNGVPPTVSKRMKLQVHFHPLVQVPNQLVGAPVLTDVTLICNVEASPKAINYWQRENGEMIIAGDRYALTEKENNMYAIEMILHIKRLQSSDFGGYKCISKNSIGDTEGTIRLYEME
Briefly: SPR. (Surface plasmon resonance follows binding to a sensor surface in real time, without labels.)

B1: Dpr10-A, recombinant protein for SPR (domain or fragment, Drosophila melanogaster)
chain: WNEPYFDLTMPRNITSLVGKSAYLGCRVKHLGNKTVAWIRHRDLHILTVGTYTYTTDQRFQTSYHRDIDEWTLQIKWAQQRDAGVYECQISTQPVRSYSVNLNIVDLIDAETSDIMQQYYNDDAFYIAENRVYQSSNDEFAGMFGPIQTVAVPTATILGGPDLYVDKGSTINLTCIIKFSPEPPTHIFWYHQDKVLSEETSGGRLKFKTIKSEETKSILLIYDADLLHSGKYSCYPSNTEIASIRVHVLQGE
For B1, the Kd is 5.76 µM.

Usually Kd stands for a measure of binding affinity in units of concentration.
